# Source: patent publication US20100254993A1 (Novartis, published 2010)
# Changes are numbered by the printed parent chain.
# T1: recombinant human interleukin-4 (human, UniProt P05112 25-153)
# T1 sequence (looked up): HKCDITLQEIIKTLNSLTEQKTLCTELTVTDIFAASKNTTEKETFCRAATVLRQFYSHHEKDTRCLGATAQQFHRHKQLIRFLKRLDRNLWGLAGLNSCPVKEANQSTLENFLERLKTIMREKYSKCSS
# B1: Example 4 antibody comprising SEQ ID NO:25 and SEQ ID NO:26 (antibody, human IgG1, V domains shown)
# VH: QVQLVQSGAEVKKPGSSVKVSCKASGDTFSSYAISWVRQAPGQGFEWMGGIIPVIGTVNYEERFQDRVTITADNSTSTAYMELTSLRSEDTAVYFCGREEGFLDYWGQGTLVTVSS
# VL: AIQLTQSPSSLSASVGDRVTITCRASQGISSALAWYQQKPGKAPKLLIYDASSLESGVPSRFSGSGSGTDFTLTISSLQPEDFATYYCQQFNSYPLLTFGGGTKVEIKR
# notes: also called Ex. 4
# B2: Example 3 antibody comprising SEQ ID NO:17 and SEQ ID NO:18 (antibody, human IgG1, V domains shown)
# VH: QVQLVESGGGMVQPGRSLRLSCAASGFTLSSYGMHWVRQAPGKGLEWVTVIWYDGNNQYYADSVKGRFTISRDNSKNTLYLQMNSLRAEDTAVYYCAREGSWSPDIFDIWGQGTMVTVSS
# VL: AIQLTQSPSSLSASVGDRVTITCRASQGISSYLAWYQQKPGKAPKLLIYDASSLESGVPSRFSGSGSGTDFTLTISSLQPEDFATYYCQQFNSYPITFGQGTRLEIKR
# notes: also called Ex. 3
# B3: Example 5 antibody comprising SEQ ID NO:33 and SEQ ID NO:34 (antibody, human IgG1, V domains shown)
# VH: QVQLVESGGGVVQPGRSLRLSCAASGFTFSCCGMHWVRQAPGKGLEWVAVIWYDGSNKYYADSVKGRFTISRDTSKNTLYLQMNSLRAEDTAVYYCATDSSGSFYEYFQHWGQGTLVTVSS
# VL: B2 VL with S30N, Y32A, I96Y, R103K
# notes: also called Ex. 5
# B4: Example 2 antibody comprising SEQ ID NO:9 and SEQ ID NO:10 (antibody, human IgG1, V domains shown)
# VH: B2 VH with M11V, Y32F, T49A, N56S, Q58E, I70T
# VL: B2 VL with A25T, S30R, Y32A, K39N, I96V
# notes: also called Ex. 2
# B5: Example 1 antibody comprising SEQ ID NO:1 and SEQ ID NO:2 (human IL-4 specific monoclonal antibody) (antibody, human IgG1, V domains shown)
# VH: B2 VH with M11V, L29F, G33A, V50F, Y53D, N56S, N57F, Q58K, D62E
# VL: B2 VL with S31R, Y32A
# notes: also called Ex. 1; mAb as defined by CDRs as described in claim 2a)
# Molecular target: T1, recombinant human interleukin-4
# Experiment: cell-based or functional assay
Binder,BAF cell proliferation IC50,IL-4 induced CD23 IC50,IL-4 induced IgE IC50
B1,688 pM,848 pM,7.57 nM
B2,84 pM,873 pM,7.81 nM
B3,218 pM,2840 pM,9.94 nM
B4,50 pM,463 pM,5.34 nM
B5,30 pM,334 pM,2.81 nM

# Molecular target: T1, recombinant human interleukin-4
# Experiment: SPR (BIAcore 2000), mAb captured on anti-human IgG CM-5 chip, rhIL-4 as analyte
# Experimental: Affinity measurements of human mAbs of the present invention are carried on a BIAcore™ 2000 instrument. […] A subsequent application of rhIL-4 results in a further change of the refractory properties, which allows determination of the association rate (Kₒₙ, on rate) as well as the dissociation rate (Koff, off rate) and the […] of these two, the affinity (Kd, dissociation constant, given in pM), according to the BIAevaluation 3.0 software.
row,Binder,Kd
1,B1,0.066 nM
2,B2,0.089 nM
3,B3,0.084 nM
4,B4,0.059 nM
5,B5,0.043 nM
